The target in assay [1] is HLA-A*02:01. Nature of the assay: IEDB peptide-MHC binding, purified MHC/competitive/radioactivity; filed as Kd, often an IC50 or EC50 that approximates it; ≥ and ≤ were set here for values at or beyond the usual limits of such assays.
Assay [2] deals with HLA-A*02:17. The assay is described as above.
Assay [3] addresses HLA-A*02:01. Nature of the assay: IEDB peptide-MHC binding, purified MHC/competitive/fluorescence; filed as Kd, often an IC50 or EC50 that approximates it; ≥ and ≤ were set here for values at or beyond the usual limits of such assays.
Assay [4] has as its target HLA-A*68:02. Described as above.
For assay [5], the target named is HLA-A*02:11. The description is as above.
For assay [6], the target named is HLA-A*02:16. The assay is described as above.
Assay [7] deals with HLA-B*39:01. The description is as above.
Assay [8] has as its target HLA-B*46:01. Described as above.
Assay [9] deals with HLA-B*18:01. The assay is described as above.
Assay [10] addresses HLA-B*51:01. The assay is described as above.
For assay [11], the target named is HLA-A*02:03. The description is as above.
Assay [12] concerns the target HLA-A*02:19. The description is as above.
The target of assay [13] is HLA-A*24:03. The description is as above.
Assay [14] addresses HLA-A*26:01. Described as above.
For assay [15], the target named is HLA-B*15:01. The assay is described as above.
In assay [16] the target is HLA-A*31:01. The description is as above. Particulars: source organism: Escherichia coli 536.
For assay [17], the target named is HLA-A*02:12. The description is as above.
In assay [18] the target is HLA-B*57:01. The assay is described as above.
Assay [19] concerns the target HLA-A*69:01. The assay is described as above.
The target in assay [20] is HLA-A*02:06. The assay is described as above.
For assay [21], the target named is HLA-A*29:02. The description is as above.
Assay [22] has as its target HLA-B*27:03. Described as above.
Assay [23] concerns the target HLA-A*02:03. The assay can be described thus: IEDB peptide-MHC binding, purified MHC/competitive/radioactivity; filed as Kd, often an IC50 or EC50 that approximates it; ≥ and ≤ were set here for values at or beyond the usual limits of such assays.
For assay [24], the target named is HLA-A*02:06. The assay is described as above.
In assay [25] the target is HLA-B*08:01. The description is as above. Particulars: source organism: Dengue virus 1 Brazil/97-11/1997.
Assay [26] concerns the target HLA-A*03:01. Nature of the assay: IEDB peptide-MHC binding, purified MHC/competitive/fluorescence; filed as Kd, often an IC50 or EC50 that approximates it; ≥ and ≤ were set here for values at or beyond the usual limits of such assays. The note with it: source organism: Cryptosporidium parvum Iowa II.
Assay [27] addresses HLA-B*15:17. Described as above. The note with it: source organism: Cryptosporidium parvum Iowa II.
In assay [28] the target is HLA-C*15:02. The assay can be described thus: IEDB peptide-MHC binding, purified MHC/direct/fluorescence; filed as Kd, often an IC50 or EC50 that approximates it; ≥ and ≤ were set here for values at or beyond the usual limits of such assays.
Assay [29] addresses HLA-C*12:03. The assay is described as above. Particulars: source organism: Bacillus anthracis str. A0488.
The mark [30] stands for this setting: source organism: Dengue virus 3 China/80-2/1980.
[31] abbreviates: source organism: Escherichia coli 536.
Where [32] appears, read: source organism: Human herpesvirus 5 strain Towne.
[33] abbreviates: source organism: Human immunodeficiency virus 1.
[34] abbreviates: source organism: Dengue virus 2 Jamaica/1409/1983.
The mark [35] stands for this setting: source organism: Entamoeba histolytica HM-1:IMSS.
Where [36] appears, read: source organism: Dengue virus 4 Philippines/H241/1956.
The mark [37] stands for this setting: source organism: Dengue virus 1 Singapore/S275/1990.
Setting [38] is: source organism: Dengue virus 1 Brazil/97-11/1997.
The mark [39] stands for this setting: source organism: Cryptosporidium parvum Iowa II.
Where [40] appears, read: source organism: Bacillus anthracis str. A0488.

Where only a bound is given, the exact number is not on record here.

One may read the Kd as a measure of binding affinity in units of concentration.

As to LLLGLMILL, the Kd in [1] (setting [30]) turned out to be 13.6 nM; in [2] (setting [30]), 110 nM.
Consider RVGIYFGMK, for which the Kd in assay [3] (setting [31]), in assay [4] (setting [31]), in [5] (setting [31]), in assay [6] (setting [31]), in assay [7] (setting [31]) and in [8] (setting [31]) was not below 20000 nM each time. Besides, the Kd in assay [9] (setting [31]), in assay [10] (setting [31]), in assay [11] (setting [31]), in assay [12] (setting [31]), in [13] (setting [31]) and in assay [14] (setting [31]) was not below 20000 nM each time. Moreover, the Kd is not below 20000 nM in assay [15] (setting [31]); 45.6 nM in assay [16]; not below 20000 nM in [17] (setting [31]); not below 20000 nM in assay [18] (setting [31]); not below 20000 nM in assay [19] (setting [31]).
As to NLVPMVATV, the Kd in [5] (setting [32]) was not above 0.1 nM; in assay [6] (setting [32]), 0.543 nM; in assay [12] (setting [32]), 0.6 nM; in assay [20] (setting [32]), not above 0.1 nM; in assay [17] (setting [32]) it was 1.55 nM; in [19] (setting [32]) it was 75 nM.
With DLADQLIHL, the Kd in [3] (setting [33]) turned out to be 178 nM; in assay [5] (setting [33]), 33 nM; in [6] (setting [33]) it was 55.5 nM; in assay [11] (setting [33]), 136 nM; in assay [12] (setting [33]), 42.5 nM; in [20] (setting [33]), 59 nM. Also, the Kd stood at 476 nM in [17] (setting [33]) and 19.8 nM in assay [19] (setting [33]).
In the case of TLLLLTLLAT, the Kd was found to be 141 nM in assay [1] (setting [34]) and 1320 nM in assay [2] (setting [34]).
In the case of KTFEWGVFY, the Kd in assay [4] (setting [35]), in [6] (setting [35]), in [7] (setting [35]), in assay [11] (setting [35]), in [12] (setting [35]) and in assay [13] (setting [35]) was not below 20000 nM each time. Besides, the Kd was not below 20000 nM in assay [14] (setting [35]); 0.5 nM in assay [21] (setting [35]); not below 20000 nM in assay [17] (setting [35]); not below 20000 nM in assay [19] (setting [35]); not below 20000 nM in assay [22] (setting [35]).
For the sequence LIFILLTAV, the Kd in assay [1] (setting [34]) came to 74.4 nM; in [2] (setting [34]), 3590 nM; in assay [23] (setting [34]) it was 56.2 nM; in [24] (setting [34]), 497 nM.
On to FMTATPPGA, for which the results for the Kd in [1] (setting [36]), in [2] (setting [36]) and in assay [23] (setting [36]) were 49 nM, 6440 nM and 152 nM, respectively.
For KLSMGLIAI the same measures were 12.4 nM, 2480 nM and 31.4 nM.
For LLMRTTWAL, the Kd was 20.7 nM in [25]; 21.4 nM in assay [1] (setting [37]); 4.89 nM in assay [2] (setting [37]); 0.817 nM in [23] (setting [38]); 1.43 nM in [24] (setting [38]).
Consider YMPTVIEEL, for which the dissociation constant Kd was 39.6 nM in assay [1] (setting [36]), 5.23 nM in [2] (setting [36]), 91.9 nM in assay [23] (setting [36]) and 46.9 nM in assay [24] (setting [36]).
With VYWENEVSI, the Kd in assay [3] (setting [39]), in assay [4] (setting [39]), in [5] (setting [39]), in [6] (setting [39]), in assay [7] (setting [39]) and in assay [26] was not below 20000 nM in each case. The Kd in assay [8] (setting [39]), in assay [9] (setting [39]), in [10] (setting [39]), in assay [11] (setting [39]), in assay [12] (setting [39]) and in assay [14] (setting [39]) was not below 20000 nM throughout. The Kd was not below 20000 nM in assay [15] (setting [39]); not below 20000 nM in assay [27]; not below 20000 nM in assay [21] (setting [39]); 286 nM in assay [17] (setting [39]); not below 20000 nM in assay [18] (setting [39]); not below 20000 nM in [19] (setting [39]). Besides, the dissociation constant Kd in assay [22] (setting [39]) was not below 20000 nM.
The sequence VTNRHEEKF came in with a Kd in [28] (source organism: human gammaherpesvirus 4) of 4270 nM.
In assay [28] (source organism: Salmonella enterica subsp. enterica serovar Typhimurium str. LT2), KTIPVAMTL had a Kd of 15 nM.
Turning to FVFGIPLLV, the dissociation constant (Kd) was 41 nM in assay [28] (setting [40]), not above 1 nM in assay [29] and 0.2 nM in assay [21] (setting [40]).

The values are drawn from the Immune Epitope Database (IEDB).
